The results in this text go back to patent publication US20130261049A1, “ALPHABODIES SPECIFICALLY BINDING TO CLASS-I VIRAL FUSION PROTEINS AND METHODS FOR PRODUCING THE SAME” (priority 2011, published 2013).

Where two headings read alike, the source gives them in different places. Bounds are passed on as bounds.

Data set [1] relates to HIV strain HXB2 in MT4-X4 cells. Description: microbe, parasite or virus in culture. To be noted: read-out: 50% inhibition concentration (IC50). From the text:
The virus used in this assay was the laboratory adapted reference strain HXB2 virus using CXCR4 as co-receptor. Cells were infected with 100 TCID50/ml of virus in the presence of three-fold dilutions of Alphabody starting at 2.5 microM. […] MTT is reduced to formazan by living cells. Solubilization of the formazan crystals results in a colored product that can be measured by spectrophotometry at 540 nm. The cellular toxicity of the Alphabodies was monitored in the same assay using the same read-out, i.e. cell survival. As controls, the clinically approved T20 peptide (Fuzeon®, Roche) was used, as well as the CXCR4 antagonist, AMD3100 (Mozobile™, Genzyme).

Data set [2] concerns HIV strain HXB2 in PBMC. Put plainly: microbe, parasite or virus in culture. Particulars: read-out: 50% inhibition concentration (IC50). As for the experimental part: PBMC were infected with 4000 TCID50/ml of virus and added to serial dilutions of scAB_C2 starting at 2 microM. After 7 days, the amplification of the virus in absence and presence of scAB_C2 was monitored by measuring the viral p24 concentration. The maximal p24 concentration was measured when PBMC and virus were incubated without inhibitory molecules and was set at 100% viral amplification. As controls, the clinically approved T20 (Fuzeon®, Roche) was used, as well as the CXCR4 antagonist, AMD3100 (Mozobile™, Genzyme).

Data set [3] in a line: Aggregation tendency (visual inspection, OD 340 nm, SEC profiles, SDS-PAGE). In kind it is physicochemical. To be noted: concentration ranges tested, typically up to 1 μM. How it is done: (§1) However, for these constructs, subcloning of synthetic genes was performed in the pET16b vector (Novagen), instead of in pET22b, in order to have an N-terminal 10-histidine tag.
as §1

Data set [4] can be described thus: CD thermal denaturation scan in GuHCl. In kind it is physicochemical. Particulars: CD at 222 nm, 11 microM protein in 5 M GuHCl. As for the experimental part: This coding sequence was subcloned into the pET22b vector (Novagen). […] The resulting construct was transformed into the host E. coli strain BL21(DE3) harboring a chromosomal copy of the T7 polymerase gene under control of the lacUV5 promoter (DE3 lysogen). Transformed cells were grown in medium supplemented with ampicillin and protein expression was induced by the addition of IPTG to exponentially growing cultures. Cells containing the expressed Alphabodies were collected by centrifugation and the pellets were resuspended in 50 mM Tris, 500 mM NaCl, pH 7.8. Cells were then disrupted by sonication and spun down for cell debris removal. The cleared supernatants were applied onto a HITrap IMAC HP column (GE Healthcare) loaded with Ni^2+ ions. Bound proteins were eluted by applying an imidazole gradient from 5 to 1000 mM. Alphabody-containing fractions were pooled, concentrated and loaded on a Superdex 75 size exclusion chromatography (SEC) column (GE Healthcare). During this final purification step, the buffer was changed to 50 mM Tris, 150 mM NaCl, pH 7.8.

Data set [5] has as its target HIV-1 gp41 HR2-derived biotinylated peptide C36 (HIV-1 HXB2). Description: ELISA, biotinylated peptide on streptavidin plates, sigmoid fit (apparent KD). On the technique in general: In an ELISA, binding on a coated surface is turned into a signal by an enzyme label.
Where [6] appears, read: MT4-X4 cells, HXB2 virus, 5 day, cell survival by MTT.
Where [7] appears, read: PBMC, HXB2 virus, 7 day, viral p24.

On to enfuvirtide, for which the IC50 stood at 6 nM in data set [1] (setting [6]) and 60 nM in data set [2] (setting [7]).

Regarding `c1cc(CN2CCCNCCNCCCNCC2)ccc1CN1CCCNCCNCCCNCC1` [AMD3100], the IC50 in data set [1] (Human immunodeficiency virus 1, HXB2, 120 h) came to 54 nM; in data set [2] (Human immunodeficiency virus 1, HXB2, PBMC, 168 h), 97 nM.

B1: scAB_RsvN1: Alphabody with grafted HRSV N-trimer-like binding groove, SEQ ID No: 71 (protein)
chain: SAEIQKIQSAIASTQQAIASLQNAIYVFTGGSGGSGGMSIEEIQKQIAAIQKQIAAIQKQIYRMTGSGGGGSGMSINEIKKQLLAINKQVVAIAQQVSAMSPSR
modifications: Alphabody ′scAB_RsvN1′ sequence
B1: in data set [3], the tendency to aggregate entry is reported as “None of the three Alphabodies showed tendency to aggregate”.

B2: scAB_Env03mut: monofunctional control of scAB_Bis with A- and C-helix mutations only, SEQ ID No: 79 (protein)
chain: MGHHHHHHHHHHSSHIEGRHGSAIQQIQKAIATIQKAIAWIQKKIYMITGGSGGSGGGSIEEIQKQIAAIQKQIAAIQKQIYAITGSGGGGSGGDIQQIQKQIVAIMKQIVAIVKQISAITP
modifications: Alphabody helix sequence scAB_Env03mut
With B2, the tendency to aggregate result in data set [3] is “None of the three Alphabodies showed tendency to aggregate”.

B3: scAB013_C2mut: monofunctional control of scAB_Bis with B-helix mutations only, SEQ ID No: 80 (protein)
chain: MGHHHHHHHHHHSSHIEGRHMSIEEIQKQIAAIQKQIAAIQKQIYRMTGGSGGSGGDMAMYAIQIAILIIQAQIQQIQNEIALMTLGSGGGGSGMSIEEIQKQIAAIQKQIAAIQKQIYRMTP
modifications: Alphabody helix sequence scAB013_C2mut
B3: the tendency to aggregate result in data set [3] was “None of the three Alphabodies showed tendency to aggregate”.

B4: scAB_RsvN2: Alphabody with grafted HRSV N-trimer-like binding groove, SEQ ID No: 72 (protein)
chain: SAAIESTQQAIASIQNAIAVIQQKIYDLTGGSGGSGGMSIEEIQKQIAAIQKQIAAIQKQIYRMTGSGGGGSGMSLLEINKQVVAISQQISAITKQILRMKNTP
modifications: Alphabody ′scAB_RsvN2′ sequence
Regarding B4, the tendency to aggregate entry in data set [3] is reported as “None of the three Alphabodies showed tendency to aggregate”.

B5: scAB013_C2: gp41 HR2-mimicking Alphabody, SEQ ID No: 69, expressed with C-terminal (His)6 tag (protein)
chain: MSIEEIQKQIAAIQKQIAAIQKQIYRMTGGSSGGSMQMYTIQIQILIIQAQIQQIQNQIELMTLGGSSGGMSIEEIQKQIAAIQKQIAAIQKQIYRMTP
modifications: C-terminal His6 tag; Alphabody ′scAB013_C2′ sequence
Turning to B5, the “transition temperature Tm” value in data set [4] was determined as 72 °C. The IC50 turned out to be 62 nM in data set [1] (setting [6]) and 218 nM in data set [2] (setting [7]).

B6: Alphabody scAB013_C2 with C-terminal Leu-Glu-(His)6 tag (designed binder)
chain: MSIEEIQKQIAAIQKQIAAIQKQIYRMTGGSSGGSMQMYTIQIQILIIQAQIQQIQNQIELMTLGGSSGGMSIEEIQKQIAAIQKQIAAIQKQIYRMTPLEHHHHHH
For the molecule B6, the Kd in data set [5] was above 10000 nM.

B7: scAB_Bis: optimized bispecific single-chain Alphabody binding gp41 HR2 and N-trimer, SEQ ID No: 78 (protein)
chain: MGHHHHHHHHHHSSHIEGRHGSAIQQIQKAIATIQKAIAWIQKKIYMITGGSGGSGGDMAMYAIQIAILIIQAQIQQIQNEIALMTLGSGGGGSGGDIQQIQKQIVAIMKQIVAIVKQISAITP
modifications: Alphabody helix sequence scAB_Bis
Consider B7, for which, in data set [3], the tendency to aggregate entry is listed as “None of the three Alphabodies showed tendency to aggregate”.

B8: scAB_RsvC2: Alphabody with grafted HRSV HR2-like B-helix, SEQ ID No: 75 (protein)
chain: MSIEEIQKQIAAIQKQIAAIQKQIYRMTGGSGGSGGDVQIKIIQSQIYIIQSDILLIQAQISRMTGSGGGGSGMSIEEIQKQIAAIQKQIAAIQKQIYRMTP
modifications: Alphabody ′scAB_RsvC2′ sequence
For B8, the tendency to aggregate entry in data set [3] is recorded as “None of the three Alphabodies showed tendency to aggregate”.
